Experiment: soluble on expression in E. coli; label from the status in PepcDB or PDB records

For “MGEGIGRVFFLKDEVGFQPLSNHQGLVVKLLESWREGDEPLALSPKTKERLLLAARYHDDGKRFTFHIVPDGKGGLTYSFRGHRFRVAQAVQDPYAQALIRGHHDYSTREVVNLAADFLEEGLGHRFPEDLFLLMMADQLEAELAVRLWQRRAGEVRPFVEFDLLPDGEGGFLLDPWPFRVDEVALDFLVYFHPYRGEEAKVVEGWGRALVGALEEGKVPEAFREEKRRVRLRPWAAGARKADDPEAFYDRFGLKPTPFQREVFKVAEGDPAHLLLAPTGTGKTEAAAFPALARGERLVFVLPTRSLVDDLEGRFRCYLKILAQEEGRPKALVVDTGHRQARFRFSPDGQEEATKERHLYHADVILTTLDKLLYRYFGYAEGVKSYTFPRRIHDRRTLFVFDEVHLYEATAWVNFRHLIASLYKAGVRFLVMSATMPGTYREELLLEGTLEHPAAKRPSRVLRYMPQGNPMEIIQSHRGKRVLVVLEEVKEAAELYKRLKGEGVFLYHGRLAEGQRRRVFGEVKRRDKAQEPYLLITTPAIEVGVDLDAEVLVTTLCPPENLLQRLGRVNRRGGGQGEAYVVGETYPDYLGSLPEGYLELLKALDGQDLAQGGEERLRQAIRYPKYLDPRAETFFEALQDYVYGLDLTQEPLHRKGFVATRGWTPSVRLRQGEDEVEVPIDRLVGRKEELTPVRVVERLLTDGETGNRRREEVPLRSGELYGRELVLNYPYPYDPELGFVELPKVFQRLRHPDPQRVQLLYAPEKDAGEAPEGVMDTDQVTGGGRRVLWYLGESAWAEPAKSGEVAEETEEEEEEGD”, which “soluble on expression in E. coli” value is on record?
Its value is “soluble”.

With “MGEIQTLNEQHSVGKPVIRLSGISKSFDGKEIIGNLNLDVNHGEFLTILGPSGCGKTTVLRMIAGFETADQGQILLDDQDVTQVPAEQRHVNTVFQSYALFPHMTVFENVAFGLRMQKVPQSEIEPRVMEALRMVRLAEMAQRKPHQLSGGQQQRIAIARAVVNKPKVLLLDESLSALDYKLRKQMQSELKQLQRQLGITFIFVTHDQEEALSMSDRIIVMRSGKIEQDGSPREIYEDPKNLFVARFIGEINVFQATTIDRIDEKRIRVDIEGIESIVYYEDEVKAGDKLQVLLRPEDLRIEEIKESEEKGIVGHVTDRTYKGMTLESVVELESGMCVMVSEFFNEDDPDVDHSIGQKVAVTWVESWEVVLNDEQKA” as the sequence, how does the “soluble on expression in E. coli” value read?
The value was “not soluble”.

For “MGEVQREKVAVIIGPTAVGKTKLSIDLAKALNGEIISGDSMQIYRTMDIGTAKVTKAEMDGIPHYMIDIKNPEDSFSVAEFQERVRKHIREITERGKLPIIVGGTGLYIQSVLFDYQFTDDAGDVIYREQREKLALERGVEYVHEKLQEVDPESAERIHANNVRRVIRALEIFHTTGEKMSEQIEKQEKELLYDVSLIGLTMDREMLYDRINLRVDLMMEQGLLEEVEGLYNRGIRDCQSIQAIGYKEIYDYFENRASLEDAVSQLKTNSRRYAKRQLTWFRNKMDVTWFDVTDGEKTSEILRYIEGKLQVKSNNSK”, which “soluble on expression in E. coli” value is on record?
The value was “not soluble”.

With “MGEVRVVGIRVEQPQNQPVLLLREANGDRYLPIWIGQSEAAAIALEQQGVEPPRPLTHDLIRDLIAALGHSLKEVRIVDLQEGTFYADLIFDRNIKVSARPSDSVAIALRVGVPIYVEEAVLAQAGLLIPDESDEEATTAVREDEVEKFKEFLDSVSPDDFKAT” as the sequence, how does the “soluble on expression in E. coli” value read?
The value was “soluble”.

With “MGFEDGFYTILHLAEGQHPNSKIPGGMYASSKDGKDVPVTAEPLGPQSKIRWWIARDPQAGDDMYTITEFRIDNSIPGQWSRSPVETEVPVYLYDRIKAEETGYTCAWRIQPADHGADGVYHIVGNVRIGSTDWADLREEYGEPQVYMKPVPVIPNVYIPRWFILGYEE” as the sequence, how does the “soluble on expression in E. coli” value read?
Its value is “soluble”.

For “MGFFNFIKTVGEKLGIGDSEPTEKDFKTAFDNFQLGTEKVNIQVENGKVVLSGEVPDRETLEKALLVVGNAQGISSVDIGQLKVADTACMKASRFYEVKSGDNLWKIAEEVYGKGQGDKNTFIFEANKPMLKSPDKIYPGQVLRIPEIDRA”, which “soluble on expression in E. coli” value is on record?
Its value is “not soluble”.

With “MGFHPIELRIQILGLSAFGVDSKEIAAALDVPVRSVQRIIQRAKERGFDPATDPRVKMEYVEDAERSGRPKKGSKVMAAKSQAGSTSGSESVVAAGSEVGDGNRNSMPEAQA” as the sequence, how does the “soluble on expression in E. coli” value read?
Its value is “not soluble”.

Which “soluble on expression in E. coli” value does the source give for “MGFIMEFAENLVLRLMENPEERDRKAREHIYEMHERCKKIKEMWALPIRPYGFWTFERHNAQLRWDPQISQVAGRRDPYDDLLEDNYTPPSSSSSSSD” here?
The value was “soluble”.

For “MGFKTVAKEEKQQLVANVFHSVAAKYDLMNDLLSFGIHRIWKRFTIDCSGVRKGQKVLDLAGGTGDFSAKFSRIVGETGQVVLADINSSMLEVGRDKLRNLGVVGNINYVQANAEHLPFADNTFDCVVISFGLRNVTDKDKALKSMYRVLKPGGRLLVLEFSKPIFDPISQLYNFYSFNILPKVGGIVVNDAESYRYLAESIRMHPKQDELKTMMEHAGFESVNYYNLSAGIVALHRGYKLEHHHHHH”, which “soluble on expression in E. coli” value is on record?
Its value is “not soluble”.

With “MGFLNKLLSSEGPRKPKVKFDLQKCKVLLKGGENRIRLQKSKLAVCNLLASPVPALKNLFNKNSVKLQQREVAVLLEGGKDELARIRAEQMVRDELLIESYEIVEVLCETLLTRHNLLALNFHATKENPYPPLPPEIAEAVCSIAFASCRLDASELQTLTEMLASRFGPELIDSACAGQPSQRVWGVNSLVNPRLYSKLLYSVPDGNVVLQKLQDIADMFQLEWKAPAEFEELKDHSVLDSTASTPVFSGNAQRARYLPEASSFSDEKIGDDVFCTNESEQTEEGRDPSDDLSARLEALKRNR” as the sequence, how does the “soluble on expression in E. coli” value read?
The value was “not soluble”.

For “MGFMIEHWDFSTPMATQETTTAEHIQPNHWYHCERLHPDIRSWLEDNHVPRATVDHLLADESRPSFHPLDDDNFMLILRGINMNENASPEDMLSIRILYFQGALISTRKIPSRAIMEIRQALAEHKGPKSLASLLNQIIEGLNGKIDLYLDTIEETLNEFDVNDESTYNHIAAQKALISIKRFIRPQQYAIRDLIESESELVTSRPHQYRFAHNNITRINETIEFYLGEVALFQDEIKHNRDEKTNKNSYLFTLVATIFLPTSFLTGLL”, which “soluble on expression in E. coli” value is on record?
Its value is “not soluble”.

With “MGFQLRGDYLLDDDLQTLYVSSSDIHGELTRLVKLNLTRNQVNVLKHSKADVPELRILSDKLDRRTLSLFSNGQVAEYELIYSVHYQVRFTGEDARDFRFELYRDYQDDPNIALAKSRELSLLLSEMRTSAADKILRDLARIQRLEHHHHHH” as the sequence, how does the “soluble on expression in E. coli” value read?
Its value is “soluble”.

With “MGGDRAPDEILKGALLASKEVEGEIVLIGPEEIVKNKGLPFVSASEIVKMDDPPLEVLRKKNSSMHMGLKLLSEGKVDAFVSAGATGPLFLGATSIVGKLEGIERPALGVAVPSLKGATVLIDAGANAKVRPEHLVDFAFMGIAYSKVLGAENPRVGLLNMGSEENKGPDDIKRAYQLLKEFLGDTFFGNVEGHDINLGTVDVVVADGFSGNVALKTMEGTAKLVTSVLKESIKDGGFLSLLGALLMKRSFDKMKEKLDPRSYGGTFILGVKGIVVKAHGSSDAKAIKHAIKVAEKGIRVNIVQEIERGISHVRNSGDGR” as the sequence, how does the “soluble on expression in E. coli” value read?
Its value is “soluble”.

Which “soluble on expression in E. coli” value does the source give for “MGGKSNGEKKYIVGFKQGFKSCAKKEDVISEKGGKLQKCFKYVDAASATLNEKAVEELKKDPSVAYVEEDKLYRALSATS” here?
The value was “soluble”.

For “MGGMDTGVTSPRVLVVDDDSDVLASLERGLRLSGFEVATAVDGAEALRSATENRPDAIVLDINMPVLDGVSVVTALRAMDNDVPVCVLSARSSVDDRVAGLEAGADDYLVKPFVLAELVARVKALLRRRGSTATSSSETITVGPLEVDIPGRRARVNGVDVDLTKREFDLLAVLAEHKTAVLSRAQLLELVWGYDFAADTNVVDVFIGYLRRKLEAGGGPRLLHTVRGVGFVLRMQ”, which “soluble on expression in E. coli” value is on record?
Its value is “soluble”.

For “MGGPGETQIEADRRLLQDRIVKLEKELEQVVRTRQLHRAKRRKVPHPIVALVGYTNAGKSTLFNRITGAGVLAEDMLFATLDPTLRRMKLPHGRTVILSDTVGFISDLPTHLVAAFRATLEEVLEADLVLHVRDMSDPDNAAQSADVLRILGDLGIDEKEAEKRIIEVWNKVDRLEPEAHDAIMQRAEGRSDIRAVSAITGEGVDALMEEISKRLSGVLTETTVVLSVEQLPLISWVYSNSIVDNREDHEDGSVALDVRLSEAQAVELERKLGKTAGREREDWERAAALEHHHHHH”, which “soluble on expression in E. coli” value is on record?
Its value is “not soluble”.

Which “soluble on expression in E. coli” value does the source give for “MGGSHHHHHHGMASALATRQRESSITSCCSTSSCDADDEGVRGTCEDASLCKRFAVSIGYWHDPYIQHFVRLSKERKAPEINRGYFARVHGVSQLIKAFLRKTECHCQIVNLGAGMDTTFWRLKDEDLLPSKYFEVDFPMIVTRKLHSIKCKPPLSSPILELHSEDTLQMDGHILDSKRYAVIGADLRDLSELEEKLKKCNMNTQLPTLLIAECVLVYMTPEQSANLLKWAANSFERAMFINYEQVNMGDRFGQIMIENLRRRQCDLAGVETCKSLESQKERLLSNGWETASAVDMMELYNRLPRAEVSRIESLEFLDEMELLEQLMRHYCLCWATKGGNELGLKEITY” here?
Its value is “not soluble”.

For “MGGSHHHHHHGMASGKSDFLTPKAIANRIKSKGLQKLRWYCQMCQKQCRDENGFKCHCMSESHQRQLLLASENPQQFMDYFSEEFRNDFLELLRRRFGTKRVHNNIVYNEYISHREHIHMNATQWETLTDFTKWLGREGLCKVDETPKGWYIQYIDRDPETIRRQLELEKKKKQDLDDEEKTAKFIEEQVRRGLEGKEQEVPTFTELSRENDEEKVTFNLSKGACSSSGATSSKSSTLGPSALKTIGSSASVKRKESSQSSTQSKEKKKKKSALDEIMEIEEEKKRTARTDYWLQPEIIVKIITKKLGEKYHKKKAIVKEVIDKYTAVVKMIDSGDKLKLDQTHLETVIPAPGKRILVLNGGYRGNEGTLESINEKTFSATIVIETGPLKGRRVEGIQYEDISKLA”, which “soluble on expression in E. coli” value is on record?
The value was “not soluble”.

With “MGGSHHHHHHGMASWPPPRCPLGVPLVLDGCGCCRVCARRLGEPCDQLHVCDASQGLVCQPGAGPGGRGALCLLAEDDSSCEVNGRLYREGETFQPHCSIRCRCEDGGFTCVPLCSEDVRLPSWDCPHPRRVEVLGKCCPEWVCGQGGGLGTQPLPAQGPQFSGLVSSLPPGVPCPEWSTAWGPCSTTCGLGMATRVSNQNRFCRLETQRRLCLSRPCPPSRGRSPQNSAF” as the sequence, how does the “soluble on expression in E. coli” value read?
Its value is “not soluble”.

Which “soluble on expression in E. coli” value does the source give for “MGGSVAAQDEFYRSGWALNMKELKLLQTIGKGEFGDVMLGDYRGNKVAVKCIKNDATAQAFLAEASVMTQLRHSNLVQLLGVIVEEKGGLYIVTEYMAKGSLVDYLRSRGRSVLGGDCLLKFSLDVCEAMEYLEGNNFVHRDLAARNVLVSEDNVAKVSDFGLTKEASSTQDTGKLPVKWTAPEALREKKFSTKSDVWSFGILLWEIYSFGRVPYPRIPLKDVVPRVEKGYKMDAPDGCPPAVYEVMKNCWHLDAAMRPSFLQLREQLEHIKTHELHL” here?
Its value is “soluble”.

With “MGHAKHLIDGNIETFWHSRWQGGSDPLPYEIIIDMNHRVKIAQIELLPRGRGSNNPIKVVRFEASEDGTNWESIGQFGFTNQDAALKYYVKSSTARYIKLVIPDGVGNGTVAAIRELDVRGTVVNLEHHHHHH” as the sequence, how does the “soluble on expression in E. coli” value read?
The value was “not soluble”.

Which “soluble on expression in E. coli” value does the source give for “MGHHHHHHGGHMSLDYQKEYERKLISPEEAANLVKDGMHIEIGGSANTALIIDKYLAKRKDELSHVEVGTFIDIAHYEFLKADPEQEKIKWESCFLYEPVRKCSKELGPCVHRPGVLSDAGYIAKELGGVLKGGKKYTDIAFLVTTPMDRHGFFNFGVTCTFLKSIAEGAEKVVVVVKKDMPWVNGGYDECIHISEVDYIVEDNEFPTPFLPFLPPPSKEDEMIAENIMEAGLIENGSTLQVGIGGLPNTVVRMLKEAGLKDLGIHTEMMGDGLMELMEEGIVTNQNKKLDRGKAVFSFALGTRKLYDFLDRNPEVATYPVEYTNNPFVVAQQPKMFSLNQVAQIDLMGQINSGQIGLTSPSGKIFQISGTGGQLDFVLGCFYSFDRQGKSVLATYSTYNGTSRIIPALPTGAGVTVPRSVVQYVATEWGIAYLRGLPIYKRAAAMIQLAHPDHRDWLEEEARKLGILPPKYSIPAGKADGVIYRRDEGGS” here?
The value was “soluble”.

Reference: the DeepSol protein solubility set
